This is an account of results in patent publication US5972698.

Where two headings read alike, the source gives them in different places.

In test [1] the target is human tryptase (purified from human lung tissue) (human) (UniProt Q15661). The experiment in a line: enzyme inhibition, tos-Gly-Pro-Arg-pNa as substrate.
In test [2] the target is bovine trypsin (bovine) (UniProt P00760).
Target sequence in this assay (P00760 24-246): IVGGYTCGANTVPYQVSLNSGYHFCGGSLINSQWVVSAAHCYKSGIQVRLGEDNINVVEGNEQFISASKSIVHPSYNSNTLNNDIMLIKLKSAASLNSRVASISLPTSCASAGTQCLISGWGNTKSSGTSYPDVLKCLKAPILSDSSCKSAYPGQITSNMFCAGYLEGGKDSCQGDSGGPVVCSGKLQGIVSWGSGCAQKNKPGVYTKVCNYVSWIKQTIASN
Test [3] deals with human tryptase (purified from human lung tissue) (human) (UniProt Q15661).
Test [4] addresses bovine chymotrypsin (bovine) (UniProt P00766). The experiment in a line: enzyme inhibition, steady state velocities on Suc-Val-Pro-Phe-pNA, tight binding fit.
Test [5] concerns the target human tryptase (purified from human lung tissue) (human) (UniProt Q15661). The source holds these as a separate data set.
Test [6] shares this target. The source holds these as a separate data set.
For test [7], the target named is human cathepsin G (human) (UniProt P08311).
For test [8], the target named is human thrombin (human) (UniProt P00734).
The target of test [9] is human plasmin (human) (UniProt P00747).
The target in test [10] is porcine pancreatic kallikrein (porcine) (UniProt P00752).
Another test addresses human urokinase (human) (UniProt P00749). The experiment in a line: enzyme inhibition at 0.2 µM inhibitor, Table 5.
A further test addresses human factor Xa (human) (UniProt P00742). In words: enzyme inhibition at 0.2 µM inhibitor, Table 5.
Test [11] addresses human neutrophil elastase (human) (UniProt P08246). In words: enzyme inhibition at 0.2 µM inhibitor, Table 5.
The target of test [12] is human cathepsin G (human) (UniProt P08311). In words: enzyme inhibition at 0.2 µM inhibitor, Table 5.
Test [13] addresses human thrombin (human) (UniProt P00734). The experiment in a line: enzyme inhibition at 0.2 µM inhibitor, Table 5.
For test [14], the target named is human plasmin (human) (UniProt P00747). In words: enzyme inhibition at 0.2 µM inhibitor, Table 5.
Test [15] deals with porcine pancreatic kallikrein (porcine) (UniProt P00752). In words: enzyme inhibition at 0.2 µM inhibitor, Table 5.
Test [16] concerns the target porcine pancreatic elastase (porcine) (UniProt P00772). The experiment in a line: enzyme inhibition at 0.2 µM inhibitor, Table 5.
The target in test [17] is human plasma kallikrein (human) (UniProt P03952). The experiment in a line: enzyme inhibition at 0.2 µM inhibitor, Table 5.
The target of test [18] is human tryptase (purified from human lung tissue) (human) (UniProt Q15661). In words: enzyme inhibition, steady state velocities on Tos-Gly-Pro-Arg-pNA, tight binding fit.
Test [19] deals with bovine trypsin (bovine) (UniProt P00760). The description is as above.
Test [20] has as its target human tryptase (purified from human lung tissue) (human) (UniProt Q15661). The source holds these as a separate data set.
For test [21] the target is unchanged. In words: enzyme inhibition, steady state velocities on Tos-Gly-Pro-Arg-pNA, tight binding fit; Ki for the inhibition of two of the four subunits of the tryptase-tetramer.

Sequence of recombinant leech-derived tryptase inhibitor form C, secreted by Saccharomyces cerevisiae (strain S-78 with pRM 9.1.4) (chain): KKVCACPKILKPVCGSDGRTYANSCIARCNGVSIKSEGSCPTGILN

Substance “recombinant leech-derived tryptase inhibitor form C, secreted by Saccharomyces cerevisiae (strain S-78 with pRM 9.1.4)” displayed a Ki in test [1] of 1.9 nM. For the same substance, in the test with bovine trypsin (bovine) [2], the trypsin inhibition assay (residual trypsin activity on Tos-Gly-Pro-Arg-p-NA) was 60%. This substance also gave an amidolytic activity of tryptase on tos-Gly-Pro-Arg-pNa in test [3] of 50%.
“leech-derived tryptase inhibitor (isolated from extract of the medical leech Hirudo medicinalis)”: the Ki in test [4] was 20 nM; with bovine trypsin (bovine) [19], 0.9 nM; in [21], 1.4 nM. Also, the values for the Ki [nM], first of the two columns so headed (in [4]; in test [18]; with bovine trypsin (bovine) [19]) were 137 nM, 1.8 nM and 4.7 nM, respectively. In addition, the tryptase-induced breakdown of vasoactive intestinal peptide (VIP), reversed phase HPLC in test [5] came to 66%. This substance also displayed an amidolytic activity of tryptase on tos-Gly-Pro-Arg-pNa in test [6] of 50%. Besides, the amidolytic activity of cathepsin G on Suc-Val-Pro-Phe-pNA, inhibitor at 0.2 µM in test [7] is 11%. The same substance registered an amidolytic activity of thrombin on Tos-Gly-Pro-Arg-pNA, inhibitor at 0.2 µM in the test with human thrombin (human) [8] of 12%. The substance also had an amidolytic activity of plasmin on Tos-Gly-Pro-Lys-pNA, inhibitor at 0.2 µM with human plasmin (human) [9] of 30%. Moreover, the amidolytic activity of tissue kallikrein on D-Val-Leu-Arg-pNA, inhibitor at 0.2 µM in [10] was found to be 14%. The Ki relative to the complex with tryptase (times higher) (with human urokinase (human); with human factor Xa (human); in [11]; in [12]; with human thrombin (human) [13]; with human plasmin (human) [14]) was over 200 times throughout. Further, the Ki relative to the complex with tryptase (times higher) in test [15], in test [16] and in test [17] was over 200 times each time. This substance also came in with a tryptase-induced growth of HaCaT keratinocytes (3H-thymidine incorporation) in test [20] of 99%.
